Laboratory results reported in PMC7913777, “Allosteric effects of SSB C-terminal tail on assembly of E. coli RecOR proteins” (Nucleic Acids Research, 2021).
Several values for one entry are separate records, joined by “and”; a condition that tells them apart may be missing. Identical values can stand only once.

Key:
[1] = molecular target: Escherichia coli RecR protein (E. coli) (UniProt P0A7H6); assay: AUC; sedimentation velocity of RecR alone, eight concentrations 2-20 μM (monomer), buffer BTP (pH 8.0), 25°C, 233 nm
[2] = molecular target: Escherichia coli RecR protein (E. coli) (UniProt P0A7H6); assay: AUC; sedimentation equilibrium of RecR alone, 4, 8 and 12 μM (monomer), buffer BTP pH 7.5, 50 mM NaCl, 25°C; dimers to tetramer, Lobs = [R4]/[R2]^2
[3] = molecular target: Escherichia coli RecR protein (E. coli) (UniProt P0A7H6); assay: AUC; sedimentation equilibrium of RecR alone, buffer BTP, 37°C; dimers to tetramer
[4] = molecular target: Escherichia coli RecR protein (E. coli) (UniProt P0A7H6); assay: AUC; sedimentation equilibrium of RecR alone, 4, 8 and 12 μM (monomer), buffer BTP pH 6.4, 50 mM NaCl, 25°C; dimers to tetramer, Lobs = [R4]/[R2]^2
[5] = molecular target: Escherichia coli RecR protein (E. coli) (UniProt P0A7H6); assay: AUC; sedimentation equilibrium of RecR alone, 4, 8 and 12 μM (monomer), buffer BTP pH 8.0, 50 mM NaCl, 25°C; dimers to tetramer, Lobs = [R4]/[R2]^2; at 8 μM also a two-species model with the second mass floated
[6] = molecular target: Escherichia coli RecR protein (E. coli) (UniProt P0A7H6); assay: AUC; sedimentation equilibrium of RecR alone, 4, 8 and 12 μM (monomer), buffer BTP pH 9.0, 50 mM NaCl, 25°C; dimers to tetramer, Lobs = [R4]/[R2]^2
[7] = molecular target: Escherichia coli RecR protein (E. coli) (UniProt P0A7H6); assay: AUC; sedimentation equilibrium of RecR alone, 4, 8 and 12 μM (monomer), buffer BTP pH 8.5, 50 mM NaCl, 25°C; dimers to tetramer, Lobs = [R4]/[R2]^2
[8] = molecular target: Escherichia coli RecR protein (E. coli) (UniProt P0A7H6); assay: AUC; sedimentation equilibrium of RecR alone, buffer BTP pH 8.0, 50 mM NaCl + 10 mM MgCl2, 25°C; dimers to tetramer
[9] = molecular target: Escherichia coli RecR protein (E. coli) (UniProt P0A7H6); assay: AUC; sedimentation equilibrium of RecR alone, 4, 8 and 12 μM (monomer), buffer BTP pH 7.0, 50 mM NaCl, 25°C; dimers to tetramer, Lobs = [R4]/[R2]^2
[10] = molecular target: Escherichia coli RecR protein (E. coli) (UniProt P0A7H6); assay: AUC; sedimentation equilibrium of RecR alone, buffer BTP pH 8.0 with 200 mM NaCl, 25°C; dimers to tetramer
E. coli RecR tetramer [11] = molecular target: T1, E. coli RecR tetramer (E. coli, UniProt P0A7H6 1-201); assay: AUC; sedimentation velocity, RecO (1.5 μM) titrated with RecR (1.5-9 μM monomer; 1:1 to 1:6), no P15, buffer BTP (pH 8.0), 25°C; K3 and K4 from SedAnal simulations (Scheme 1) that best describe the c(s) profiles
T1 construct: RecR, E. coli; tetramer 87.8 kDa; Same preparation as m2; the tetrameric state, which is the one found in complexes with RecO; also called RecR4; R4; source: E. coli BL21 Rosetta 2(DE3)pLysS, purified (Ni-NTA)
T1 sequence (looked up): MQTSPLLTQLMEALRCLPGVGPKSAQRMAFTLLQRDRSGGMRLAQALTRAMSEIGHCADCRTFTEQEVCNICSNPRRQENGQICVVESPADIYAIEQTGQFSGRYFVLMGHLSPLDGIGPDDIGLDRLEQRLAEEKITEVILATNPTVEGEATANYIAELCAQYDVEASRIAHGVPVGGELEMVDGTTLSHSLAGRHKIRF

E. coli RecR tetramer [12] = molecular target: T1, E. coli RecR tetramer; assay: AUC; sedimentation equilibrium, RecO 1.5 μM + RecR 1.5 μM monomer (1:1), no P15, buffer BTP (pH 8), 25°C, 18 000, 23 000, 28 000 rpm; two-species model, free RecO fixed
E. coli RecR tetramer [13] = molecular target: T1, E. coli RecR tetramer; assay: AUC; sedimentation equilibrium, RecO 1.5 μM + RecR 6 μM monomer (1:4), no P15, buffer BTP (pH 8), 25°C, 18 000, 23 000, 28 000 rpm; two-species model, free RecR dimer fixed
[14] = molecular target: T2, Escherichia coli RecO protein (E. coli, UniProt P0A7H3 1-242); assay: ITC; pH 8, 25°C
T2 chain: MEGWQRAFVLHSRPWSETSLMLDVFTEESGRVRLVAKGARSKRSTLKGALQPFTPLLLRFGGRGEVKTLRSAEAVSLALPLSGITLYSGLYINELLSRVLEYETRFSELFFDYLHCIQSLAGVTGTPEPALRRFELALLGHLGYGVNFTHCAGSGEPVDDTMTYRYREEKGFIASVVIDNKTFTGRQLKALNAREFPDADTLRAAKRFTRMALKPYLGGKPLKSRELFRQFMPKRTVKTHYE

[15] = molecular target: T3, RecOR complex (pre-mixed RecO and RecR, 1:4 molar ratio) (E. coli, UniProt P0A7H3 1-242; P0A7H6 1-201); assay: ITC; P15 (50 μM) titrated into a pre-mixed solution of RecO (2 μM) and RecR (8 μM monomer), buffer BTP, pH 8.0, 25°C; conditions: both partners purified
T3 construct: RecO, E. coli; as m1; RecR, E. coli; as m2; also called pre-mixed solution of RecO (2 μM) and RecR (8 μM monomer); source: purified RecO and purified RecR (both from E. coli), pre-mixed; copies: + 4
T3 sequence (looked up) 1: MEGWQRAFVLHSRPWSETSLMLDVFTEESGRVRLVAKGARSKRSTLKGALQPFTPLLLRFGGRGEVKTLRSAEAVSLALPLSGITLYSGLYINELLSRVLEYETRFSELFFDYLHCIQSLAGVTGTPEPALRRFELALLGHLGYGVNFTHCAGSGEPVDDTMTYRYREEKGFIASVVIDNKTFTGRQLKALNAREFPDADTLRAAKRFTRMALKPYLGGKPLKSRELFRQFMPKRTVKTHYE
T3 sequence (looked up) 2: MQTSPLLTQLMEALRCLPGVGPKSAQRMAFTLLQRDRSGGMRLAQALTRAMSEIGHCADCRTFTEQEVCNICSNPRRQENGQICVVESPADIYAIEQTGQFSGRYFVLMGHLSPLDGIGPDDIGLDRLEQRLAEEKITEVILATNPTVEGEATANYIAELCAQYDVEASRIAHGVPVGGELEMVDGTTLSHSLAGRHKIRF

E. coli RecR tetramer [16] = molecular target: T1, E. coli RecR tetramer; assay: AUC; sedimentation equilibrium, RecO 1.5 μM + RecR 1.5 μM (1:1) with P15 (9 μM), buffer BTP (pH 8), 25°C, 19 000, 24 000, 29 000 rpm; two-species model; conditions: both partners purified
E. coli RecR tetramer [17] = molecular target: T1, E. coli RecR tetramer; assay: AUC; sedimentation equilibrium, RecO 1.5 μM + RecR 6 μM (1:4) with P15 (9 μM), buffer BTP (pH 8), 25°C, 19 000, 24 000, 29 000 rpm; one-species model; conditions: both partners purified
E. coli RecR tetramer [18] = molecular target: T1, E. coli RecR tetramer; assay: AUC; sedimentation equilibrium, RecR 2 μM monomer, RecO 6 μM (3:1), P15 36 μM, buffer BTP (pH 8.0), 25°C, 19 000, 24 000, 29 000 rpm; two-species model, RecO-P15 fixed at 29.1 kDa; conditions: both partners purified

Escherichia coli RecR protein (from UniProt P0A7H6 1-201) (natural protein)
stoichiometry N [1]: 2 and 4 | Ka [2]: 568000 M⁻¹ | Ka [3]: 149000 M⁻¹ | Ka [4]: 267000 M⁻¹ | Ka [5]: 216000 M⁻¹ | stoichiometry N [5]: 4 | Ka [6]: < 500 M⁻¹ | Ka [7]: 4320 M⁻¹ | Ka [8]: 72000 M⁻¹ | Ka [9]: 1.65e+06 M⁻¹ | Ka [10]: 34900 M⁻¹

Escherichia coli RecO protein (from UniProt P0A7H3 1-242) (natural protein)
K3 (association constant, first RecO to RecR4) (E. coli RecR tetramer [11]): 500000 M⁻¹ | K4 (association constant, second RecO to RecR4O) (E. coli RecR tetramer [11]): 4e+08 M⁻¹ | stoichiometry N (RecO per RecR tetramer) (E. coli RecR tetramer [12]): 2 | stoichiometry N (RecO per RecR tetramer) (E. coli RecR tetramer [13]): 2

B1: P15 peptide (the 15 C-terminal amino acids of E. coli SSB) (peptide)
peptide: PSNEPPMDFDDDIPF
notes: the 15 C-terminal amino acids of E. coli SSB; also called SSB-Ct peptide; SSB C-terminal acidic tip peptide; source: bought: WatsonBio
Ka [14]: 1.2e+07 M⁻¹ | dH [15]: < 1 kcal/mol

B2: RecO–P15 complex (complex, E. coli)
chain: MEGWQRAFVLHSRPWSETSLMLDVFTEESGRVRLVAKGARSKRSTLKGALQPFTPLLLRFGGRGEVKTLRSAEAVSLALPLSGITLYSGLYINELLSRVLEYETRFSELFFDYLHCIQSLAGVTGTPEPALRRFELALLGHLGYGVNFTHCAGSGEPVDDTMTYRYREEKGFIASVVIDNKTFTGRQLKALNAREFPDADTLRAAKRFTRMALKPYLGGKPLKSRELFRQFMPKRTVKTHYE
peptide: PSNEPPMDFDDDIPF
notes: RecO, E. coli; as m1; the 15 C-terminal amino acids of E. coli SSB; as m3; 29.1 kDa; also called RecO in the presence of a 6-fold molar excess of P15; source: RecO from E. coli BL21(DE3)pLysS, purified; P15 bought: WatsonBio; mixed with a six-fold molar excess of P15 over RecO; copies: 1 + 1
stoichiometry N (E. coli RecR tetramer [16]): 2 RecO per RecR tetramer | stoichiometry N (E. coli RecR tetramer [17]): 1 RecO per RecR tetramer | stoichiometry N (E. coli RecR tetramer [18]): 2 RecO-P15 per RecR tetramer
